Laboratory results from paper PMC11040352 (2024).
Starred links: 1 amine or outer side, 2 acyl side, 3 side chain; linkers in the order of their positions; H or OH if unused. Positions of bridges follow the written chain, without caps; N, C: chain ends. Primed or numbered codes have the meaning given here. *: point of attachment. NOTA = O=C(O)CN1CCN(CC(=O)O)CCN(CC(=O)*)CC1; TBMB = c1c(C[*:1])cc(C[*:3])cc1C[*:2]; PEG3′ = not defined here

Target: His-Tagged human CD38 (recombinant) (human, UniProt P28907 1-300)
Experiment: SPR

For {NOTA-PEG3′}-ACVPCADFPIWYC-NH2 (linker 2-5-13 via TBMB (inferred)) [AJ206], which koff is on record?
The koff was 0.0006 s⁻¹.
